Results published in US11311610B2, “Immune-modulating agents and uses therefor” (UNIVERSITY OF TECHNOLOGY SYDNEY, priority 2010, dated 2022).

Legend:
[1] = test system: immune cell invasion of pancreatic islets; experiment: Insulitis in NOD mouse model of type 1 diabetes; format: in vivo; settings: NOD mice, 6 injections every second day from 5 weeks, sacrificed at 10 weeks
Description: Non-obese diabetic (NOD) mice (model of Type 1 diabetes) were given 6 injections (on every second day) of proteinaceous compound beginning at 5 weeks of age and animals were sacrificed at 10 weeks of age (i.e. when insulitis develops). Subsequently, formalin-fixed, paraffin-embedded pancreata was stained with haematoxylin and eosin to assess islet inflammation (i.e., insulitis).
Islet insulitis was scored as 0 (healthy islet), 1 (peri-insulitis up to 25% of islet occupied by leukocytes), 2 (leukocytic infiltration from 25% up to 50% of islet mass), 3 (leukocytic infiltration from 50% up to 75% of islet mass) or 4 (less than 25% of islet mass present). Accordingly, the greater the percentage of islets with higher insulitis scores the worse the prognosis for diabetes development would be for that animal.

[2] = test system: peritoneal macrophages; experiment: IL-10 secretion by peritoneal macrophages of treated NOD mice; format: in vivo; settings: 10 μg i.p. x6, 24 h after last injection, compared to untreated mice
Procedure: FhHDM-1 was given to female NOD mice aged 4 weeks. 10 μg of FhHDM-1 was delivered i.p. in PBS on alternate days for a total of 6 doses. 24 h after the last injection, macrophages were isolated from the peritoneal lavage and cultured in RPMI supplemented with FCS for 12 h. IL-10 secreted into the media was measured by ELISA.
Female NOD mice (n=6) were given recombinant HDM (10 μg in 100 μL sterile PBS) by intraperitoneal (i.p.) injection on alternate days beginning at 4 weeks of age for a total of 6 injections. Control mice were given 100 μL of sterile PBS on the same days. 24 h after the last injection mice were sacrificed and peritoneal cells harvested by lavage. Macrophages were isolated from peritoneal lavages based upon their adherent properties, and cultured overnight at 37° C. in RPMI supplemented with FCS. The quantity of IL-10 secreted into the media was measured by ELISA.

[3] = test system: human monocytes; experiment: Activation marker expression on stimulated human monocytes (flow cytometry); format: cell-based; settings: human monocytes stimulated 40 h with 10 μg/mL
[4] = test system: peritoneal macrophages; experiment: Alternative activation of peritoneal macrophages in mice (RT-PCR); format: in vivo; settings: Balb/c mice, three i.p. injections of 5 μg
Procedure: FIG. 7 is a photographic representation showing the results of a RT-PCR analysis of macrophage RNA isolated from Balb/c mice given three i.p. injections of 5 μg native FhHDM-1 (NFh6) or recombinant FhHDM-1 (FH6).
Balb/c mice were given three intraperitoneal (i.p.) injections of 5 μg native (NFh6) or recombinant FhHDM-1.

[5] = test system: primary human macrophages; experiment: Proteomics analysis of treated macrophages; format: cell-based
Description: FIG. 11 is a diagrammatic representation showing a Venn diagram of soluble proteins identified in primary human macrophages.

[6] = test system: RAW macrophages; experiment: ATP induced macrophage cell death (LDH release); format: cell-based, murine; settings: 20 μg/mL pre-treatment 1 h, then ATP 5 mM 2 h
Procedure: FIG. 16 is a graphical representation showing that FhHDM-1 P3 prevents ATP induced cell death in RAW macrophages. RAW macrophages were pretreated with either FhHDM-1 (20 μg/mL) or FhHDM-1 p3 (20 μg/mL) for 1 h, then washed and cultured in the presence of ATP (5 mM) for 2 h. Cell death (% cytotoxicity) was quantified according to the amount of LDH released by the cells into culture media.
Raw macrophages were pre-treated with either HDM (20 μg/mL) or FhHDM-1 P3 (20 μg/mL) for 1 h, washed and then cultured in the presence of ATP (5 mM) for 2 h. The culture supernatants were collected and assayed for LDH activity with an LDH release kit. The amount of LDH release by cells treated with ATP only was used to represent 100% cytotoxicity.

[7] = of 237 proteins present in both samples

| Molecule | immune cell invasion of pancreatic islets (insulitis) [1] | IL-10 secreted by peritoneal macrophages [2] | expression of markers of alternative activation (CD163 and CD206) [3] | expression of markers of the classical phenotype (CD86 and HLA-DR) [3] | expression of Arg-1 and Ym1 in isolated peritoneal macrophages [4] | lysosomal proteins of primary macrophages [5] | number of proteins down-regulated following treatment [5, 7] | number of proteins up-regulated following treatment [5, 7] | KEGG pathways in primary human macrophages (Table 5) ([5]; proteomic analysis) | number of proteins uniquely expressed in the treated sample ([5]; versus PBS-treated sample) | LDH release induced by ATP (cytotoxicity of ATP) [6] |
| --- | --- | --- | --- | --- | --- | --- | --- | --- | --- | --- | --- |
| KARDRAMAYLAKDNLGEKITEVITILLNRL (FhHDM-1 peptide 1 comprising a truncated amphipathic helix contained in FhHDM-1) [FhHDM-1 p1, peptide in which the amphipathic helix is truncated] | no significant activity | – | – | – | – | – | – | – | – | – | – |
| FhHDM-1: 90-residue polypeptide from F. hepatica, Helminth Defense Molecule-1 (SEQ ID NO:24); recombinant form minus N-terminal signal peptide, expressed in E. coli (protein, listed as Fasciola hepatica) MRFIVLLCLAEVLLAAYVEARPSEESREKLRESGRKMVKALRDAVTKAYEKARDRAMAYLAKDNLGEKITEVITILLNRLTDRLEKYAGN | – | significantly more | increased expression | decreased expression | increased expression | down-regulates | 44 | 42 | down-regulated | 6 | no significant effect |
